Assay results published in patent US6436654B1, “Methods for identifying compounds that modulate HIF-1α” (Pharmacia & Upjohn AB, priority 1998, dated 2002).

Legend:
[1] = system: GAL4 responsive reporter plasmid; assay: Cotransfection of GAL4-HIF-1α fusion proteins with GAL4 responsive luciferase reporter; format: cell-based, simian; settings: for stimulation of GAL4 reporter activity by coexpressed CBP / stimulation of GAL4 reporter activity by coexpressed SRC-1: hypoxic conditions, vs hypoxia without exogenous coactivator; for GAL4 reporter transcriptional activity (in words): with or without CBP / SRC-1
From the text: To analyze functional activities of HIF-1α independently of the endogenous DNA binding and dimerization domains and the Arnt partner, we next fused HIF-1α to the heterologous DNA binding domain of GAL4. Functional activity of the fusion protein was monitored in COS7 cells by a cotransfection assay using a reporter gene construct carrying five GAL4 DNA binding elements in front of thymidine kinase promoter and the luciferase gene. Six hours after transfection media was changed, and cells were either left uninduced or exposed to 1% oxygen for 30 h prior to harvest. In the presence of either empty expression vector or a vector expressing the minimal GAL4 DNA binding domain, reporter gene activity was unaltered by reduced oxygen levels. […] The GAL4 DNA binding domain is known to harbor an NLS motif capable of taking fusion proteins to the nucleus (Ma and Ptashne (1987) Cell 51, 113-119). We therefore used antibodies directed against the DNA binding domain of GAL4 to examine in both normoxic and hypoxic cells the intracellular localization of the GAL4-HIF-1α fusion protein by immunofluorescence.
Transcriptional activity of GFP and GAL4 fusion constructs was analyzed in a cotransfection assay where effector plasmids (0.2 μg/30-mm dish) together with a reporter gene (1.5 μg/30-mm dish) were introduced into COS7 or HeLa cells. The reporter plasmid encoded firefly luciferase gene under the control of thymidine kinase minimal promoter and either five or three copies of GAL4 or HIF-responsive elements, respectively.

GST/Ref-1 = GST/Ref-1 (Homo sapiens, UniProt P27695); assay: Pull-down of [35S]methionine-labeled GAL4/HIF proteins with GST/Ref-1; format: binding; settings: presence or absence of diamide
GST/Ref-1, sequence (P27695 whole entry, species assumed, the tested form may be a part): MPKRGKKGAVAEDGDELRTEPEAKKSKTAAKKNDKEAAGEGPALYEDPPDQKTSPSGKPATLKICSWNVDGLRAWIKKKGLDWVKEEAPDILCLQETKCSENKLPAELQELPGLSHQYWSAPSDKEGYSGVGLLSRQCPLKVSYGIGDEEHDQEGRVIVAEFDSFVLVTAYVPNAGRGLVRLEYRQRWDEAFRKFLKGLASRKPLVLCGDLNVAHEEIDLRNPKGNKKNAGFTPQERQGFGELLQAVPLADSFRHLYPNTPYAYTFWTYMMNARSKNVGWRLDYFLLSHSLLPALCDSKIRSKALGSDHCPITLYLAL
Description: The precise mechanism by which Ref-1 activates HIF-1α is not known. […] To further investigate whether Ref-1 could interact with HIF-1α, we tried to trap the interaction by using a crosslinking reagent such as diamide, which oxidizes cysteine sulfhydryls to disulfides. A series of experiments was performed with GST-tagged purified Ref-1. [^35S]methionine-labeled in vitro translated GAL4/HIF 1-826 was incubated with GST/Ref-1 in the presence or absence of diamide.
Next, we tried a series of pull-down experiments with [^35S]methionine-labeled in vitro translated GAL4/HIF […] and GAL4/HIF 531-584. […] An interaction between GAL4/HIF […] and GST/Ref-1 was also detected, and this interaction was enhanced in the presence of diamide. In excellent agreement with this observation the C-TAD contains two cysteine residues. […] Immunoblot analysis verified that the input concentrations of GST/Ref-1 or GST alone were similar.

| Molecule | hypoxia-dependent activation of GAL4 reporter gene activity ([1]; 1% O2 vs normoxia, no exogenous coactivator) | stimulation of GAL4 reporter activity by coexpressed CBP [1] [fold] | stimulation of GAL4 reporter activity by coexpressed SRC-1 [1] [fold] | binding to GST/Ref-1 (in words) (GST/Ref-1) | regulation by Ref-1 and the coactivators (in words) ([1]; Ref-1, CBP and SRC-1) | GAL4 reporter transcriptional activity (in words) [1] | stimulation of hypoxia-dependent activation response by p300ΔHAT ([1]; absence of SRC-1, hypoxia) [fold] |
| --- | --- | --- | --- | --- | --- | --- | --- |
| GAL4/HIF 776-826: GAL4 fusion containing the carboxy-terminal transactivation domain of HIF-1α (SEQ ID NO: 14) (protein) MKLLSSIEQACDICRLKKLKCSKEKPKCAKCLKNNWECRYSPKTKRSPLTRAHLTEVESRLERLEQLFLLIFPREDLDMILKMDSLQDIKALLTGLFVQDNVNKDAVTDRLASVETDMPLTLRQHRISATSSSEESSNKGQRQLTVSSDLACRLLGQSMDESGLPQLTSYDCEVNAPIQGSRNLLQGEELLRALDQVN | about 2 fold | 29 | 17 | detected | – | – | – |
| GAL4/HIF 776-813: GAL4 fusion of C-terminal transactivation domain lacking 13 most carboxy-terminal amino acids (SEQ ID NO: 15) (protein) MKLLSSIEQACDICRLKKLKCSKEKPKCAKCLKNNWECRYSPKTKRSPLTRAHLTEVESRLERLEQLFLLIFPREDLDMILKMDSLQDIKALLTGLFVQDNVNKDAVTDRLASVETDMPLTLRQHRISATSSSEESSNKGQRQLTVSSDLACRLLGQSMDESGLPQLTSYDCEVNAPIQGSRNLL | – | – | – | – | showed no regulation by Ref-1 and the coactivators | completely abrogated | – |
| GAL4/HIF 526-641: GAL4 fusion with N-terminal transactivation domain and proposed inhibitory sequence (protein) MKLLSSIEQACDICRLKKLKCSKEKPKCAKCLKNNWECRYSPKTKRSPLTRAHLTEVESRLERLEQLFLLIFPREDLDMILKMDSLQDIKALLTGLFVQDNVNKDAVTDRLASVETDMPLTLRQHRISATSSSEESSNKGQRQLTVSDMVNEFKLELVEKLFAEDTEAKNPFSTQDTDLDLEMLAPYIPMDDDFQLRSFDQLSPLESSSASPESASPQSTVTVFQQTQIQEPTANATTTTATTDELKTVTKDRMEDIKILIAS | – | – | – | – | – | complete abrogation of the effect of CBP and SRC-1 | – |
| GAL4/HIF 531-584: GAL4 chimeric protein spanning the N-terminal transactivation domain of HIF-1α (SEQ ID NO: 13) (protein) MKLLSSIEQACDICRLKKLKCSKEKPKCAKCLKNNWECRYSPKTKRSPLTRAHLTEVESRLERLEQLFLLIFPREDLDMILKMDSLQDIKALLTGLFVQDNVNKDAVTDRLASVETDMPLTLRQHRISATSSSEESSNKGQRQLTVSFKLELVEKLFAEDTEAKNPFSTQDTDLDLEMLAPYIPMDDDFQLRSFDQLSPLE | – | 11 | 1.5 | bound GST/Ref-1 | – | – | 2 |
